From article PMC10182654, “The pattern of histone H3 epigenetic posttranslational modifications is regulated by the VRK1 chromatin kinase” (Epigenetics & Chromatin, 2023)

Molecular target: T1, GST-PCAF (aa 352–832) (human, UniProt Q92831 352-832)
T1 construct: PCAF (KAT2B), residues 352-832, fused to GST; Written GST-PCAF; source: bacterially expressed and purified
Test: pull-down; purified VRK1-His and GST-PCAF (aa 352–832) incubated in 20 mM Tris–HCl pH 7.5, 5 mM MgCl2, 0.5 mM DTT, 150 mM KCl at 37 °C for 45 min; Glutathione Sepharose 4B overnight at 4 °C; SDS-PAGE, Coomassie staining; dose-dependent
Settings: both partners purified

T1 sequence (Q92831 352-832): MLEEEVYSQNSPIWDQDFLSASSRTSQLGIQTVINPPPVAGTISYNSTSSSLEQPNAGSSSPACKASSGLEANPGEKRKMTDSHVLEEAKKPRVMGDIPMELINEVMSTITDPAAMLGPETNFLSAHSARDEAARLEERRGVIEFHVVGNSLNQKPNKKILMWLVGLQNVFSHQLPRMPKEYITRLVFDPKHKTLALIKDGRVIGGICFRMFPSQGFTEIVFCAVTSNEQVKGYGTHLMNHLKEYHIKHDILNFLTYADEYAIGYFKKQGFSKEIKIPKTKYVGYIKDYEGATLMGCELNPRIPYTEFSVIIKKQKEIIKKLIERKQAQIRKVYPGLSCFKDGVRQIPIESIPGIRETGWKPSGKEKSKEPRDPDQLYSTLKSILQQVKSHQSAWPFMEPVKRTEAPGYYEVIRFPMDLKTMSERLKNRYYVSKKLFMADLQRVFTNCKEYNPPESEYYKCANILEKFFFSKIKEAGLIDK

B1: VRK1-His (enzyme, human, UniProt Q99986 1-396, looked up)
chain: MPRVKAAQAGRQSSAKRHLAEQFAVGEIITDMAKKEWKVGLPIGQGGFGCIYLADMNSSESVGSDAPCVVKVEPSDNGPLFTELKFYQRAAKPEQIQKWIRTRKLKYLGVPKYWGSGLHDKNGKSYRFMIMDRFGSDLQKIYEANAKRFSRKTVLQLSLRILDILEYIHEHEYVHGDIKASNLLLNYKNPDQVYLVDYGLAYRYCPEGVHKEYKEDPKRCHDGTIEFTSIDAHNGVAPSRRGDLEILGYCMIQWLTGHLPWEDNLKDPKYVRDSKIRYRENIASLMDKCFPEKNKPGEIAKYMETVKLLDYTEKPLYENLRDILLQGLKAIGSKDDGKLDLSVVENGGLKAKTITKKRKKEIEESKEPGVEDTEWSNTQTEEAIQTRSRTRKRVQK
notes: VRK1 with a His tag, bacterially expressed and purified; Printed both as His-VRK1 (results) and VRK1-His (methods); the end of the tag cannot be told; also called His-VRK1; source: bacterially expressed and purified
  binding result: binds
